Laboratory results taken from patent US12624123B2, “Compositions and methods for reducing off-target toxicity of antibody drug conjugates” (The Research Foundation for The State University of New York, priority 2019, dated 2026).
Entries after “also recorded” stand apart in the source; their conditions may differ.

Tests used:
8C2 mAb = assay: Competitive ELISA of 8C2 with topotecan and SN38 (BSA-topotecan coated); type: binding, murine; conditions: 8C2 held constant at 10 nM; read-out: IC50 in competitive ELISA vs intact 8C2
Procedure: A competitive ELISA was employed to determine the affinity of intact 8C2 mAb for SN38 and topotecan. A BSA-topotecan conjugate was synthesized and immobilized as previously described (Shah et al., Int J Pharm. 2014; 465(1-2):228-238. doi:10.1016/j.ijpharm.2014.01.038) 8C2 concentration was held constant at 10 nM with increasing concentrations of topotecan or SN38. 8C2 drug samples were incubated for 2 hours at room temperature with agitation. Following incubation, wells were washed three times with 250 μL of PBS-T and three times with dH2O. Wells were then incubated with a 1:500 dilution anti-mouse AP conjugate secondary in PBS-T with 3% BSA for 1 h. After washing, 250 μL of 4 mg/ml PNPP in diethanolamine buffer pH 9.8 with absorbance being read at 405 nm. The change in absorbance over time data was fit to a four-parameter function in GraphPad Prism 7.

LS174T cells = assay: Competitive cell cytotoxicity assay with LS174T cells; type: cell-based
Procedure: Log-phase MOLM-14, Ramos (RA 1), HT-29, LS174T, or NCI-N87 cells were seeded in 96-well microtiter plates at a density of 20,000 cells/well, 20,000 cells/well, 5,000 cells/well, 5,000 cells/well, and 10,000 cells/well, respectively, in 100 μL of culture medium. HT-29, LS174T, and NCI-N87 cells were allowed to adhere for 24 h before cell culture media was aspirated and replaced with 100 μL of fresh media containing a range of treatment for, 48 (LS174T), 96 (NCI-N87), or 120 (HT-29) h. MOLM-14 and Ramos cells were re-suspended with treatment solutions, where 100 μL of cell-treatment suspension was aliquoted into wells of a 96-well plate for 24 h. Treatment solutions consisted of calicheamicin, MMAE, topotecan, or SN38 with or without immunized animal plasma, purified anti-drug antibody, or antibody-drug conjugate (ADC) with or without plasma or anti-drug antibody. For MOLM-14 and Ramos cells, 25 μL of MTT solution (5 mg/mL in pH 7.4 1× PBS) was added directly to wells following treatment incubation. For adherent cells, treatment media was aspirated from wells and cells were washed three times with 100 μL of fresh media. Following the final wash, 100 μL of complete media and 25 μL of MTT solution were added to each well. Cells were incubated for 4 h in order to allow cells to reduce MTT to formazan dye. […] Formazan dye was measured at 570 nm and normalized by cell debris at 690 nm.

Trastuzumab deruxtecan = assay: Indirect ELISA of purified sdAb on trastuzumab deruxtecan; type: binding
Text: FIG. 16. SDS-PAGE and Indirect ELISA.
FIG. 18. SDS-PAGE and Indirect ELISA.

Ramos cells = assay: MTT cytotoxicity of calicheamicin on Ramos cells; type: cell-based; conditions: 24 h
Procedure: (§1) Log-phase MOLM-14, Ramos (RA 1), HT-29, LS174T, or NCI-N87 cells were seeded in 96-well microtiter plates at a density of 20,000 cells/well, 20,000 cells/well, 5,000 cells/well, 5,000 cells/well, and 10,000 cells/well, respectively, in 100 μL of culture medium. HT-29, LS174T, and NCI-N87 cells were allowed to adhere for 24 h before cell culture media was aspirated and replaced with 100 μL of fresh media containing a range of treatment for, 48 (LS174T), 96 (NCI-N87), or 120 (HT-29) h. MOLM-14 and Ramos cells were re-suspended with treatment solutions, where 100 μL of cell-treatment suspension was aliquoted into wells of a 96-well plate for 24 h. Treatment solutions consisted of calicheamicin, MMAE, topotecan, or SN38 with or without immunized animal plasma, purified anti-drug antibody, or antibody-drug conjugate (ADC) with or without plasma or anti-drug antibody. For MOLM-14 and Ramos cells, 25 μL of MTT solution (5 mg/mL in pH 7.4 1× PBS) was added directly to wells following treatment incubation. For adherent cells, treatment media was aspirated from wells and cells were washed three times with 100 μL of fresh media. Following the final wash, 100 μL of complete media and 25 μL of MTT solution were added to each well. Cells were incubated for 4 h in order to allow cells to reduce MTT to formazan dye. Once MTT was reduced, 100 μL of 10% SDS prepared in 0.01 M HCl was added to each well and incubated overnight to solubilize the formazan crystals. Formazan dye was measured at 570 nm and normalized by cell debris at 690 nm.
(§2) Fresh media containing a range of treatment were pre-incubated with or without 100 μM purified sdAb at room temperature for 30 minutes. Log-phase MOLM-14 cells were seeded in 96-well microtiter plates at a density of 20,000 cells/well, and were re-suspended with treatment solutions, where 100 μL of cell-treatment suspension was aliquoted into wells of a 96-well plate for 24 h. 25 μL of MTT solution (5 mg/mL in pH 7.4 1× PBS) was added directly to wells following treatment incubation. […] Formazan dye was measured at 570 nm and normalized by cell debris at 690 nm.

MOLM-14 cells = assay: MTT cytotoxicity of calicheamicin on MOLM-14 cells; type: cell-based, human; conditions: 24 h, 100 μM peptide or sdAb
Procedure: as §1, §2

[1] = sdAb CG4 ELISA and Dynabeads binding assay; conditions: for actual fold reduction considering background: 10 μM calicheamicin
Procedure: Nunc Maxisorp 96-well plates were coated with 4 μg/ml Cetuximab or Cetuximab-calicheamicin, or 5 μg/ml Avidin. Plates were washed three times with PBST and three times with dH2O, and blocked with MPBS for 2 h at RT. For the Avidin coated plates, plates were washed three times with PBST and incubated with 1 μM Biotin-Calicheamcin. Plates were then washed three times with PBST and incubated with increasing concentration of purified sdAb CG4 (G4 from FIG. 25) at RT for 2 h, with or without pre-incubation with free Calicheamicin at 10 μM. Plates were then washed three times with PBST, where bound sdAb was detected using an anti-His tag HRP-conjugated Ab diluted 1:1000 in MPBST. Following incubated and five washed with PBST, 100 μL of 1-Step Turbo TMB-ELISA solution was added to each well and incubated for 30 minutes. The reaction was quenched by adding 100 μL of Stop solution to each well and absorbance was measured at 450 nm. Alternatively, wells can also be incubated with 1:1000 diluted anti-His tag AP-conjugated Ab, instead of HRP conjugated Ab. After washing, 4 mg/ml PNPP in diethanolamine buffer pH 9.8 with absorbance being read at 405 nm.
Calicheamicin conjugated dynabeads were washed with PBST and blocked with MPBS for 30 min. Beads were washed three times with PBST and incubated with sdAb for 30 minutes. Bound sdAb were detected with 1:1000 diluted anti-His tag HRP-conjugated Ab. After washed with PBST, beads were resuspended with 500 μL of 1-Step Turbo TMB-ELISA solution and incubated for 30 minutes. The reaction was quenched by adding Stop solution, and absorbance was measured at 450 nm.

[2] = Screening of llama sdAb phage clones against calicheamicin conjugates (FIG. 25); type: binding
Procedure: A master plate was generated by inoculating a single colony into wells of a 96-well round-bottom culture plate filled with […] 2×TY supplemented with 100 μg/mL ampicillin, 2% (wt/vol) glucose and 10% (vol/vol) glycerol, and grown overnight at 37° C. These wells were then used to inoculate wells of 96-deepwell plates containing 1 mL of 2×TY medium (100 μg/mL ampicillin+0.1% (wt/v) glucose per well). Plates were incubated them for 3 h at 37° C. and 250 rpm until OD600≈0.5. Nanobody expression was induced with 4 μL of 0.5 M IPTG per well (final concentration of 2 mM) and incubated for an additional 15-24 h at 37° C. and 250 rpm. Nunc Maxisorp 96-well plates were coated as described previously. Plates were washed three times with PBST and blocked with MPBS for 2 h at RT. […] Plates were then washed three times with PBST, where bound phage was detected using an anti-HA tag HRP-conjugated Ab diluted 1:1000 in PBST. Following incubated and five washed with PBST, 100 μL of 1-Step Turbo TMB-ELISA solution was added to each well and incubated for 30 minutes. The reaction was quenched by adding 100 μL of Stop solution to each well and absorbance was measured at 450 nm.
50 μl Dynabeads-calicheamicin were blocked with MPBS (PBS+2% non-fat dry milk) at RT for 30 minutes. Following pre-incubation with 1:50 preimmunized llama plasma, phage solutions were incubated with beads at RT for 30 minutes. […]

[3] = SPR dissociation screening on DM1-Biotin chip; type: binding; conditions: 20 min dissociation phase
Procedure: Preliminary screening of DM1/4 binders were performed using a neutravidin SPR chip with DM1-Biotin on the left channel. Phagemid purified sdAbs were flowed over the SPR chip for 2 minutes at a flow rate of 25 ul/min. After binding, sdAb was dissociated for 20 minutes. Observed sensorgrams were fit to an individual dissociation rate constant for each construct. Equilibrium and kinetic binding of 3A2 was assessed using a CM5 SPR chip with TDM1 immobilized on the left channel. […] Rate constants for 3A2-TDM1 association and dissociation were obtained through fitting of the observed sensorgrams for the 1.25, 2.5, 5, 7.5 and 10 nM injections to a 1:1 Langmuir binding model.

Molecule: CC[C@@]1(O)C(=O)OCc2c1cc1n(c2=O)Cc2cc3c(CN(C)C)c(O)ccc3nc2-1 [topotecan, reference compound]
- IC50 (8C2 mAb): 9.3 nM
- topotecan concentration at which significant cell death was observed (LS174T cells; absence of 8C2 or 8C2 scFv): 2.5 nM

B1: TA2 (protein)
VHH: QVQLQESGGGLVQPGGSLRVSCAASGFTFSSYYMSWVRQAPGKGLEWVSAINTGTGSTYYADSVKGRFTISSDNAKNTVYLQMSSLKPEDTALYYCARSSLEGRVEKPYDYWGQGTQVTVSS
modifications: TA2 clone
- binding to trastuzumab deruxtecan (Trastuzumab deruxtecan): concentration-dependent binding

B2: 8C2 scFv (protein)
scFv: EVQLQQSGAELVKPGASVKLSCTASGFNIKDTYIHWVKQRPEQGLEWIGMIDLANDNTKYDPKFQGKATIITDTSSNKAYLQVSSLTSEDTAVYYCATWGAIITLGGWGQGTLVTVSAAKGGGGSGGGGSGGGGSGGGGSDIQMTQSPASLSASVGETVTITCRASGNIHNSLAWYQQIKGRSPQLLVYNAKTLADGVPSRFSGSGSGTQYSLKINSLHPEDFGSYYCQHFWSTPFTFGSGTKLEIKRENLYFQG
modifications: 8C2 scFv
- effect on topotecan cytotoxicity (LS174T cells; topotecan with 8C2 mAb or scFv): right-shifted; also recorded: increased the viability

B3: CG4: Anti-Calicheamicin sdAb, SEQ ID NO:12 (protein)
VHH: QVQLQESGGGLVQAGGSLRLSCAASGRTISGYAMGWFRQAPGKERDLVAAISRSGTSTYYADSVKGRFTISRDNAKNTVYLQMNSLKPEDTAVYYCNAPGGIWGQGTQVTVSS
modifications: CG4
- fold inhibition of calicheamicin cytotoxicity (IC50 shift) (Ramos cells): 6.34 fold
- fold change of calicheamicin IC50 (MOLM-14 cells): 15.4 fold
- fold decrease of CG4 binding signal by 10 μM calicheamicin ([1]; avidin (biotin-calicheamicin) coated plates, 64 μM CG4): 2 fold
- actual fold reduction considering background ([1]; avidin coated plates): ~4.3 fold
- binding to calicheamicin conjugates vs CG4 concentration ([1]; cetuximab-calicheamicin ELISA and Dynabeads-calicheamicin): apparent calicheamicin binding with increasing concentration; also recorded: increased with increasing concentration
- actual fold reduction considering background ([1]; cetuximab-calicheamicin coated plates): around 3.3 fold
- effect of 1 μM free calicheamicin on clone binding ([2]; rescreen of five colonies): only clone inhibited; also recorded: loss of binding signal
- binding to dynabeads-calicheamicin ([2]; single colonies): high binding

B4: TF7 (protein)
chain: QVQLQESGGGLAQPGGSLRVSCATSGFTFSSNYYISWVRQAPGRGLEWVSAINTGDGSTYYAHSVKGRFTISRDNAKNTLYLQMNSLKPEDTALYYCARSSLEGRIEKPYDYWGQGTQVTVSS
modifications: TF7 clone
- binding to trastuzumab deruxtecan (Trastuzumab deruxtecan): concentration-dependent binding

B5: DT3H3 (protein)
VHH: EVQLVESGGGLVQPGGSLRLSCAASGRTFSHDHMGWFRQAPGKEREFVAAISWTSSTYYGDSVKGRFTISRSNAKNTVYLQMNSLKPEDTAIYYCSWGVGYWGQGTQVTVSS
- dissociation kinetics [3]: longest dissociation rates; also recorded: longer dissociation rates
